Earlier results, collected in article PMC3386632.
pKd: −log10 of the molar value.

Target: integrin αIIbβ3 (Homo sapiens) (UniProt P08514)

In the case of disagregin (from UniProt P36235), the pKd is listed as 7.40.
